# What was measured:
# [1] = system: Normal human lung fibroblasts; assay: αSMA imaging, TGFβ-induced αSMA expression; assay type: cell-based
# Method: (§1) αSMA imaging. Primary cells (passage 3-5) were grown on Cell carrier Ultra, collagen Type 1 coated 96-well plates (Perkin Elmer, #6055700) at a density of 25,000 cells/well. Once the cells adhere, they were starved in serum free media for 24 hours followed by addition of treatments, i.e., 5 ng/mL TGFβ (Biolegend #580702)±inhibitors. Cells were pre-treated with inhibitors for 30 minutes prior to the addition of TGFβ stimulation. 48 hours post treatment, the cells were fixed in 4% methanol free paraformaldehyde (ThermoFisher Scientific #28908) for 20 minutes at room temperature and incubated with anti-alpha smooth muscle Actin antibody (Abcam #ab7817) at 1:4000 overnight at 4° C. Following primary antibody incubation, cells were incubated with Goat anti-mouse secondary antibody (ThermoFisher Scientific #A32723) at 1:500 and Hoechst (ThermoFisher Scientific #62249) at 1:1000 for one hour at RT. The fixed and stained cells were images for immunofluorescence on Perkin Elmer's Opera Phenix high content Imager.
# mαvβ8 = molecular target: T1, mαvβ8 (Mus musculus, UniProt P43406+Q0VBD0); assay: Mouse AlphaLISA integrin-ligand blocking assay (LAP); assay type: biochemical; settings: Table 12; read-out: IC50 Mouse integrin AlphaLISA assays mαvβ8
# T1 construct: The full extracellular domains for all α and β integrin subunits; (GGGS)3 linker (C); acidic coiled-coil with cysteine (C); GG-Avitag (C); hexa-histidine tag (C); basic coiled-coil with cysteine (C); made in house; host or cells: Expi293 cells
# T1 sequence (P43406 31-988 limits assumed): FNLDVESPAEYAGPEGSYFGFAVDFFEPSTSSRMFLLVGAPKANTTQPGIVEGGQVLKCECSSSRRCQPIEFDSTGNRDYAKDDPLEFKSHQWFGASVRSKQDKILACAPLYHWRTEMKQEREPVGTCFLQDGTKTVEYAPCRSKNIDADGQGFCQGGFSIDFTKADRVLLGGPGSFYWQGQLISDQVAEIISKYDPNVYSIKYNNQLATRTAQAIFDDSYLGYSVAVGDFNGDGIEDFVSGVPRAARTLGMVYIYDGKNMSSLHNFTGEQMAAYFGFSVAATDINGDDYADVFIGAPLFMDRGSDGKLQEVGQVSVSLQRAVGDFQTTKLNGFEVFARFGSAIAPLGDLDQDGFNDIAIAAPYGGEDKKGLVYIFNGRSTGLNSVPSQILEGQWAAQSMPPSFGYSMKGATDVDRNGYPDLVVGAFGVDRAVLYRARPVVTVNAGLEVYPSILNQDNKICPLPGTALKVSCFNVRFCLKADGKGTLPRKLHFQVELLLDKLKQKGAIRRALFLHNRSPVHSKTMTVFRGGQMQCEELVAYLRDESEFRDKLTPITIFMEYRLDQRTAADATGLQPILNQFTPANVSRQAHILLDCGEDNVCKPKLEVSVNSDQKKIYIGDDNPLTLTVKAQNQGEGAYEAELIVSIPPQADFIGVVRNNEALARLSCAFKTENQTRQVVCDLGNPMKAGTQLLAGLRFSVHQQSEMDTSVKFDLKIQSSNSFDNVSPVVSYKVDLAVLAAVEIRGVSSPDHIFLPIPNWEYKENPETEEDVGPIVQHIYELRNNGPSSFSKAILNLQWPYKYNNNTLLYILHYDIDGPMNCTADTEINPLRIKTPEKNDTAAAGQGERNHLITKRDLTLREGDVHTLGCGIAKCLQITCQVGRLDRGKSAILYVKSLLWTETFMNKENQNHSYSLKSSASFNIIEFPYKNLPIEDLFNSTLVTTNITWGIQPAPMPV
# T1 sequence (Q0VBD0 22-681 limits assumed): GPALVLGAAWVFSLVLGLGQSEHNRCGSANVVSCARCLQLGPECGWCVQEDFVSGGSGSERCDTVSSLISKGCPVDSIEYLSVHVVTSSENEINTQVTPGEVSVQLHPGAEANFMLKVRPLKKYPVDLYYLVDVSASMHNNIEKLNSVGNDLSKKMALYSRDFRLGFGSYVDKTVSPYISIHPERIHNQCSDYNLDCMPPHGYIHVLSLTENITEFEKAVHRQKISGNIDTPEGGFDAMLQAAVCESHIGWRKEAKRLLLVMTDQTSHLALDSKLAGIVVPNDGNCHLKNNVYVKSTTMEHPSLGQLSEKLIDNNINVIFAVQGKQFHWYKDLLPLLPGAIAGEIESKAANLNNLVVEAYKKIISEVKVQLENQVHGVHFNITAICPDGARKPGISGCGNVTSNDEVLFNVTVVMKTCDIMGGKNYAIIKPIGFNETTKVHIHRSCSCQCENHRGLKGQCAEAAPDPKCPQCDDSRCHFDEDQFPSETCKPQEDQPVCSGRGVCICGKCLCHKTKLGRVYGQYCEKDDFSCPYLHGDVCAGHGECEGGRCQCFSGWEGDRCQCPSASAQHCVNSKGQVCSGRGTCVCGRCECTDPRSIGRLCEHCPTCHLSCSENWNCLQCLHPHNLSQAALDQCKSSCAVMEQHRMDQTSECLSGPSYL
# Method: (§2) Integrin AlphaLISA assay. In the AlphaLISA integrin assays, we used a HEPES based buffer (25 mM HEPES pH 7.4, 137 mM NaCl, 1 mM MgCl2, 1 mM MnCl2, 2 mM CaCl2, 2.7 mM KCl, and 0.05% Tween 20). Optimal assay conditions were determined with a titration of the reagents for signal noise ratio (S/N), linear range, etc. For the respective integrins, we used the final concentrations described in Table 9.
# (§3) Briefly, the testing antibody (8 μL) was added as a 4×(of Final testing concentration) solution in the HEPES buffer described previously into a 384w AlphaPlate™ (Perkin Elmer #6005350). Then the integrin and ligand were added sequentially as 8×(4 μL each). Plates were sealed and incubated at room temperature for two hours. Then 4×acceptor bead solution ([…]) was added, and the plates were resealed and incubated at room temperature (RT) for one hour. Finally, 4×([…]) donor beads solution was added in a darkened room and incubated for 45 minutes at room temperature. Plates were read on the Envision (Perkin Elmer) in AlphaScreen™ mode within three hours of donor bead addition.
# mαvβ5 = molecular target: T2, mαvβ5 (Mus musculus, UniProt O70309+P43406); assay: Mouse AlphaLISA integrin-ligand blocking assay (vitronectin); assay type: biochemical; settings: Table 12; read-out: IC50 Mouse integrin AlphaLISA assays mαvβ5
# T2 construct: The full extracellular domains for all α and β integrin subunits; (GGGS)3 linker (C); acidic coiled-coil with cysteine (C); GG-Avitag (C); hexa-histidine tag (C); basic coiled-coil with cysteine (C); made in house; host or cells: Expi293 cells
# T2 sequence (P43406 31-988 limits assumed): as the sequence (P43406 31-988 limits assumed) above
# T2 sequence (O70309 24-719 limits assumed): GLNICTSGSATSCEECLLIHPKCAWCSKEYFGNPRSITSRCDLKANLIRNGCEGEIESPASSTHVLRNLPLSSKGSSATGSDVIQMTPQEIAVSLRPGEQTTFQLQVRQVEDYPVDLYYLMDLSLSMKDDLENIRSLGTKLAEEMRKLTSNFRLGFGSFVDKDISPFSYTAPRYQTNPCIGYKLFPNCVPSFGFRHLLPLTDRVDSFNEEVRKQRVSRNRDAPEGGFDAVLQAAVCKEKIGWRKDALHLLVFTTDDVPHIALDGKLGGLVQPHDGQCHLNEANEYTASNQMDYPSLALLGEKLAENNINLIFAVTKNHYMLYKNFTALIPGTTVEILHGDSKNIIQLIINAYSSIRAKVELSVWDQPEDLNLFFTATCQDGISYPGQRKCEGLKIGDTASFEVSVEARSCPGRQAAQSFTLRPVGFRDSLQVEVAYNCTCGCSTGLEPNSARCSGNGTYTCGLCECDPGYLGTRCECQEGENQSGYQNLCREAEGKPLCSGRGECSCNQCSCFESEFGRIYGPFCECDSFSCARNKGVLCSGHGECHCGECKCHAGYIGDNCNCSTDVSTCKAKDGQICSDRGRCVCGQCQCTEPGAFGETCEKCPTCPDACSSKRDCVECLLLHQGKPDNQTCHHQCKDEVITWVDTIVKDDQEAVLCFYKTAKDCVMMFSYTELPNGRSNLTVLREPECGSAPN
# Method: as §2, §3
# mα5β1 = molecular target: T3, mα5β1 (Mus musculus, UniProt P09055+P11688); assay: Mouse AlphaLISA integrin-ligand blocking assay (fibronectin); assay type: biochemical; settings: Table 12; read-out: IC50 Mouse integrin AlphaLISA assays mα5β1
# T3 construct: The full extracellular domains for all α and β integrin subunits; (GGGS)3 linker (C); acidic coiled-coil with cysteine (C); GG-Avitag (C); hexa-histidine tag (C); basic coiled-coil with cysteine (C); made in house; host or cells: Expi293 cells
# T3 sequence (P11688 45-999 limits assumed): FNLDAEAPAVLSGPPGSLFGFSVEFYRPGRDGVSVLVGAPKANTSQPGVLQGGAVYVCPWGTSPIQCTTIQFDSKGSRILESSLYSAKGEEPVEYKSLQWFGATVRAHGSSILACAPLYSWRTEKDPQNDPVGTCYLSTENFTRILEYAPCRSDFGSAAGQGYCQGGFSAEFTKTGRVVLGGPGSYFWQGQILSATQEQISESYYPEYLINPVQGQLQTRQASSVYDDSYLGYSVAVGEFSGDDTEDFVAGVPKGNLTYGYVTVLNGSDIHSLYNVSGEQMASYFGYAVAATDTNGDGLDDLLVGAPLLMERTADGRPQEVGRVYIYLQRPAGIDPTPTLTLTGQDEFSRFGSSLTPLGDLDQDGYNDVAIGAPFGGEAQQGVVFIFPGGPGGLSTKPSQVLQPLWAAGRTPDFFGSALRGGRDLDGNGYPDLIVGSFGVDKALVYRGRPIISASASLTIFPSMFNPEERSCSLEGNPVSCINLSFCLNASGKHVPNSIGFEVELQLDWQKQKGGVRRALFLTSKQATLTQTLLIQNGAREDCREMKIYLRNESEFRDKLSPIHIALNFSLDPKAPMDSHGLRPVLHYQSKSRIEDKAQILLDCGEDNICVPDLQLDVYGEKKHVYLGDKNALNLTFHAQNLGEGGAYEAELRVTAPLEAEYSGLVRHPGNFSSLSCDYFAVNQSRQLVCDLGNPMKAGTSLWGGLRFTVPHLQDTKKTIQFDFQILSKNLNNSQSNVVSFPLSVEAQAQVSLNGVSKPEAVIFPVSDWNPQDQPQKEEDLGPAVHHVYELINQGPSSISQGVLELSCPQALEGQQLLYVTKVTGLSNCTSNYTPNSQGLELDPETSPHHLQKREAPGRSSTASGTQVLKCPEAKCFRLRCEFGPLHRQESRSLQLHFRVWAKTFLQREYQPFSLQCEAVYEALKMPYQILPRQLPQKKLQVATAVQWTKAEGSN
# T3 sequence (P09055 21-728 limits assumed): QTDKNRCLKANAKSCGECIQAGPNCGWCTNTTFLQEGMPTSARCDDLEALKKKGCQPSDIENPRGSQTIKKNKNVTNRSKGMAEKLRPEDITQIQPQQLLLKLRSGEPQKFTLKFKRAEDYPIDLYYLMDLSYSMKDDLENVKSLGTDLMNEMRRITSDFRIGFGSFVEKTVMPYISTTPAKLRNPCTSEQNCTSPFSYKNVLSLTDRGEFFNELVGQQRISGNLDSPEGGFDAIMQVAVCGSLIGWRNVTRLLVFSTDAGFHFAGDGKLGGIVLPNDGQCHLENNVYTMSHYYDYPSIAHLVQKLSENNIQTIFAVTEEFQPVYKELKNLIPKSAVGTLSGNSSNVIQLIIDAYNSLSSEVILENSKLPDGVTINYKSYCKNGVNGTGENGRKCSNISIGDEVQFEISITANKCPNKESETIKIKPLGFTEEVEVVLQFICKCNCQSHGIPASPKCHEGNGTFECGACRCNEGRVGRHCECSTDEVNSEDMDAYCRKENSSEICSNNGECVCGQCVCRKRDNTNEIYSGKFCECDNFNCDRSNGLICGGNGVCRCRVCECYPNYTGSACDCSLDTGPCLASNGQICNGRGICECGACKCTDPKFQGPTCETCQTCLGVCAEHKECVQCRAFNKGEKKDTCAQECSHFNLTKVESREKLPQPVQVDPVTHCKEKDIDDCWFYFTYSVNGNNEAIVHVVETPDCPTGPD
# Method: as §2, §3
# [2] = system: IPF patient lung fibroblasts; assay: αSMA imaging, TGFβ-induced αSMA expression; assay type: cell-based, human; settings: TGFβ 5 ng/mL, 48 hours, read-out: IC50 of TGFβ-mediated αSMA induction
# Method: as §1
IC50 (mαvβ8) [µM],IC50 (mαvβ5) [µM],IC50 (mα5β1) [µM],Molecule,activity on TGFβ-induced αSMA in normal human lung fibroblasts [1],IC50 [2] [µM]
0.0663,> 0.25,> 0.25,"Ab-31: integrin binder antibody, VH SEQ ID NO: 35, VL SEQ ID NO: 36 (antibody, V domains shown) VH: EVQLQESGPGLVKPSETLSLTCAVSGYSISSGYYWGWIRQPPGKGLEWIGSIYHSGNTYYNPSLKSRVTISVDTSKNQFSLKLSSVTAADTAVYYCARVPRYSRGDAYYYYGMDVWGQGTTVTVSS VL: DIQMTQSPSTLSASVGDRVTITCRASQSIGSWLAWYQQKPGKAPKLLIYKASSLESGVPSRFSGSGSGTEFTLTISSLQPDDFATYYCQQSGPYPWTFGGGTKVEIK",ineffective,0.033 ± 0.021
0.0251,> 0.25,> 0.25,"Ab-30: integrin binder antibody, VH SEQ ID NO: 33, VL SEQ ID NO: 34 (antibody, V domains shown) VH: EVQLQESGPGLVKPSETLSLTCAVSGYSISSGYYWGWIRQPPGKGLEWIGSIYHSGNTYYNPSLKSRVTISVDTSKNQFSLKLSSVTAADTAVYYCARVPRYSRGDAYYYYGMDVWGQGTTVTVSS VL: DIQMTQSPSTLSASVGDRVTITCRASQSISSWLAWYQQKPGKAPKLLIYKASSLESGVPSRFSGSGSGTEFTLTISSLQPDDFATYYCQQVKIYPPYTFGGGTKVEIK",–,–
0.0719,> 0.25,> 0.25,"Ab-32: integrin binder antibody, VH SEQ ID NO: 37, VL SEQ ID NO: 38 (antibody, V domains shown) VH: EVQLQESGPGLVKPSETLSLTCAVSGYSISSGYYWGWIRQPPGKGLEWIGSIYHSGNTYYNPSLKSRVTISVDTSKNQFSLKLSSVTAADTAVYYCARVPRYSRGDAYYYYGMDVWGQGTTVTVSS VL: EIVLTQSPGTLSLSPGERATLSCRASQSVRSSYLAWYQQKPGQAPRLLIYGASSRATGIPDRFSGSGSGTDFTLTISRLEPEDFAVYYCQQAGLVFTFGGGTKVEIK",–,–

# Reference: US20250313635A1, “ANTI-INTEGRIN ANTIBODIES AND USES THEREOF” (Merck Sharp & Dohme LLC, priority 2022, published 2025)
